# B1: Hairpin Ribozyme (parent)
# chain: GUCCUCUUUCACGUGCGCGUGAAAGAGAGAAGUGAACCAGAGAAACACACGUUGUGGUAUAUUACCUGGUA
# Variants of: B1
# Experiment: self-cleavage, relative activity (ratio to wild type); higher = more cleavage; co-transcriptional
row,Variant,self-cleavage
1,C16G U53G,0.713
2,C16U A41C,1.4
3,C16U A41G,0.809
4,C16U A71U,0.859
5,C16U A36C,0.789
6,C16U A36U,0.804
7,G17A A24C,0.894
8,G17A A24U,1.03
9,C16G U52A,1.09
10,C16G A71C,1.35
11,C16G A71G,1.05
12,C16A G42A,0.366
13,G17C U58C,0.825
14,C18A A30C,0.166
15,G17A G56U,0.137
16,G17A G56C,0.185
17,G17A G56A,0.142
18,C16U C48A,0.114
19,C18A A24C,0.994
20,C18A A24U,0.86
21,C16A U63C,0.0962
22,G17A U62A,0.159
23,G17C A39G,0.217
24,G17U G25U,0.637

row,Variant,self-cleavage
1,C16U U63C,0.165
2,G17A A59C,0.196
3,G17A A59U,0.116
4,G17A C18U,1.12
5,G17C A71U,0.639
6,G17A A30U,0.0442
7,G17A A30G,0.0738
8,C16A G27C,0.218
9,C16A G27U,0.202
10,C16U U55G,0.219
11,C16U U55A,0.357
12,C16G A22C,0.604
13,C16G A22U,0.691
14,C16U U67G,0.367
15,C16U U67C,0.283
16,C16U G25U,0.873
17,C18A C38A,0.132
18,C16U A39G,0.326
19,G17U A71G,1.1
20,G17U G69U,0.258
21,G17A A41C,1.38
22,G17A A41U,1.38
23,C16U G27U,0.198
24,G17U G51C,1.17

row,Variant,self-cleavage
1,G17U G51A,0.946
2,C16A C46U,0.0901
3,G17U A24G,0.766
4,G17U G42U,0.343
5,G17U G42A,0.152
6,C16G G21U,0.442
7,C18A C46A,0.231
8,C18A C37U,0.64
9,C16G A59U,0.145
10,G17U G68C,0.162
11,G17U G68U,0.207
12,G17C G34C,1.16
13,G17C G34U,1.42
14,G17C G34A,1.02
15,C16G C66G,0.0535
16,C16U U52A,1.01
17,C16U U52C,0.7
18,G17A G51C,0.656
19,C18A A45U,0.11
20,G17A C50G,0.327
21,C16A G17U,0.944
22,G17U A41U,1.51
23,C16A G32A,0.121
24,C16A G32U,0.226

row,Variant,self-cleavage
1,C16A G32C,0.0596
2,C16U G51C,1.08
3,C16U G51U,1.03
4,C16A G21U,0.72
5,C16U C18A,0.985
6,C16U C18G,0.873
7,C18A A23C,0.863
8,C18A A23U,0.923
9,C16A G69U,0.334
10,G17U C38U,0.519
11,G17A A47G,0.129
12,C16A U55A,0.221
13,C16A U55G,0.232
14,G17U C50G,0.192
15,G17C U70C,0.866
16,G17C U70A,0.862
17,G17C U70G,0.807
18,C16G G54U,0.493
19,C16G G54A,0.485
20,G17A U55A,0.0892
21,G17A U55C,0.354
22,C16U A22C,0.899
23,G17C A44U,0.0541
24,G17U A30U,0.116

row,Variant,self-cleavage
1,G17U A30C,0.176
2,C16U G54A,0.518
3,C18A A64C,0.19
4,G17U A23U,0.811
5,G17C U62C,0.233
6,C16A G25A,0.561
7,C16U A43C,0.174
8,G17C U55A,0.257
9,G17U G19C,0.846
10,G17U A49G,0.818
11,G17U A49U,0.195
12,C18A A22G,0.857
13,G17A G21C,0.834
14,C16U A24U,1.02
15,C16U A24G,0.997
16,C16U U70C,0.949
17,C16U U70A,1.03
18,C16G C37G,0.386
19,C16G U58A,0.488
20,C18A A71G,1.14
21,G17C A45C,0.0898
22,G17A U67C,0.163
23,G17C C66G,0.0719
24,G17C C66A,0.154

row,Variant,self-cleavage
1,C16A G40U,0.147
2,G17U U67A,0.249
3,G17U U67G,0.278
4,C16G G42U,0.247
5,C16G G42A,0.251
6,G17U U63C,0.164
7,G17U U63G,0.0762
8,G17C G69A,0.404
9,C16G C38U,0.167
10,C16G U67A,0.097
11,G17U A35U,0.557
12,C16U U62A,0.18
13,C16A G56U,0.151
14,C16A U20G,0.812
15,C16A U20A,0.743
16,G17C A22C,0.75
17,G17U C46G,0.192
18,G17U C46A,0.152
19,G17C U60G,0.425
20,G17U G54C,0.413
21,G17C G21U,0.53
22,C16A G19A,0.991
23,G17C C65A,0.748
24,C16G U55A,0.265

row,Variant,self-cleavage
1,C16G G19U,0.719
2,C16G G19C,0.618
3,G17A U20G,0.492
4,G17A U20A,0.759
5,C18A A59G,0.272
6,C18A A59U,0.242
7,G17C C18G,0.645
8,G17C C18A,0.947
9,C16U A47U,0.0914
10,G17U U60A,0.738
11,C16A U33G,0.317
12,C18A A44G,0.199
13,C18A A44U,0.105
14,G17A U33C,0.113
15,C16A U67G,0.182
16,C16U C37U,0.508
17,C16U C37A,0.361
18,C16G A61G,0.151
19,C16G A61U,0.253
20,C16U G34C,1.53
21,C16U A30U,0.2
22,C16A C66U,0.416
23,C16G G51C,0.564
24,C16G G51U,0.803

row,Variant,self-cleavage
1,C16A C38A,0.203
2,G17C C37G,0.362
3,G17A G54A,0.543
4,G17C A36G,0.48
5,G17C A36C,0.532
6,G17C G54A,0.36
7,G17C G54C,0.387
8,G17A C46A,0.191
9,G17C U53C,0.826
10,G17C U53A,0.936
11,C16U U33A,0.0953
12,C16U U33C,0.27
13,C16G C18G,0.863
14,C16G C18U,0.823
15,C16U G21A,0.843
16,C16A U58G,0.736
17,C18A A49G,0.54
18,C18A A49U,0.264
19,G17A C38G,0.198
20,G17C G29U,0.134
21,C16G A49G,0.544
22,C16A U53C,0.753
23,C16U G29A,0.146
24,C16A G51A,0.943

row,Variant,self-cleavage
1,C16A G51C,0.714
2,C16U C46G,0.141
3,C16U C46A,0.177
4,G17U A47G,0.15
5,G17C A49G,0.409
6,G17C U63A,0.193
7,G17C U20C,0.585
8,C16G A43G,0.0515
9,C16G A43C,0.156
10,G17U G40U,0.181
11,G17U U70A,0.95
12,G17A C48A,0.145
13,G17A C48G,0.102
14,G17C A61U,0.198
15,C16G U33G,0.12
16,C16G U33A,0.105
17,C16G A31U,0.226
18,C16G A31C,0.0855
19,G17A A39C,0.51
20,G17U G32C,0.137
21,G17U G32U,0.121
22,G17U U55C,0.301
23,C16G U20A,1.02
24,C16G U20G,0.661

row,Variant,self-cleavage
1,G17C A47C,0.187
2,G17C A47U,0.222
3,G17C A47G,0.0817
4,C16U U60A,1.01
5,G17U U53C,0.828
6,C16G C50U,0.306
7,C16G C50A,0.198
8,C16A C48G,0.155
9,C16G G68C,0.153
10,G17C U67A,0.227
11,G17U A28G,1.02
12,C16G G57U,0.119
13,C16U A64C,0.133
14,G17A G40A,0.185
15,G17A A35U,0.778
16,G17C C38G,0.245
17,G17C C38U,0.481
18,G17U G21U,0.53
19,G17A G32A,0.105
20,G17C C48G,0.165
21,G17U A36U,0.483
22,G17A C37G,0.332
23,C16G G32C,0.091
24,C16A U70C,0.978

row,Variant,self-cleavage
1,C16A U70A,0.83
2,C16G A47G,0.187
3,G17A U70G,0.918
4,C18A A41C,1.21
5,C16G A36U,0.553
6,G17U A39C,0.479
7,G17U A39U,0.337
8,C16U G57C,0.113
9,C16U A49C,0.204
10,G17A A45C,0.0797
11,G17A G29U,0.113
12,G17A G29A,0.0893
13,C16U G19A,1.03
14,G17U U33G,0.186
15,G17U U33C,0.0633
16,G17C G68U,0.181
17,G17C A26C,0.655
18,G17A G69A,0.306
19,G17A U60A,1.02
20,G17U A22U,0.793
21,C16G A30U,0.0915
22,C16U G17U,0.92
23,C16U G17C,0.985
24,C16G A44G,0.0556

row,Variant,self-cleavage
1,C16A U52G,0.879
2,C16A G29C,0.0987
3,C16A G29A,0.144
4,C16A G29U,0.128
5,C16A G57A,0.129
6,G17C A30C,0.099
7,C16A C50G,0.24
8,C16U U58A,0.731
9,C16U U58C,1.1
10,C16G A23U,0.718
11,G17U A64G,0.624
12,G17A G42C,0.367
13,C16U C50A,0.295
14,C16U C50G,0.339
15,G17U C48A,0.106
16,C16G G25A,0.612
17,G17U A26G,0.812
18,C18A A47C,0.424
19,C16G G56U,0.187
20,G17A A43C,0.0401
21,C16G A45U,0.229
22,C16G A45C,0.152
23,C16G A64C,0.161
24,C16G A64G,0.511

row,Variant,self-cleavage
1,C16G A64U,0.172
2,C18A A43G,0.085
3,C16G G40A,0.198
4,G17U C66A,0.233
5,G17U C66U,0.537
6,C16U A26G,0.959
7,C16G C65G,0.163
8,G17A A71C,1.37
9,G17U G34A,1.24
10,G17C U33C,0.237
11,G17C U33A,0.149
12,G17C U33G,0.121
13,C16U C66A,0.194
14,G17U C65U,0.383
15,C16U A28C,0.565
16,C16U A23G,1
17,G17A,1.01
18,G17C,0.751
19,G17U,0.961
20,G17C A41G,0.591
21,C16A U62G,0.154
22,C16A U62C,0.276
23,G17A G57C,0.146
24,C16G U60G,0.511

row,Variant,self-cleavage
1,C16U A61G,0.148
2,G17A A28G,1.14
3,C16U G32A,0.216
4,C16U G40U,0.146
5,C16G A35U,0.693
6,C16G A35C,0.659
7,G17U A61C,0.161
8,G17U A61U,0.158
9,C16A G34A,1.35
10,C16A G34U,1.47
11,G17A U63G,0.29
12,G17A U63C,0.181
13,G17A A49U,0.141
14,C16U C65U,0.443
15,C16U C65G,0.26
16,G17C A59C,0.162
17,G17C A59G,0.171
18,C16A C37G,0.324
19,C16A C37A,0.377
20,C16G G69C,0.197
21,G17U A59C,0.0796
22,G17C G57C,0.206
